Experimental data as given in PMC6026317, “Molecular elements in FGF19 and FGF21 defining KLB/FGFR activity and specificity” (Molecular Metabolism, 2018).

Columns and labels:
[1] = biological target: Human β-Klotho (KLB) on 293/KLB cells (human) (UniProt Q86Z14)
[2] = biological target: Human β-Klotho (KLB) on 293/KLB cells (human) (UniProt Q86Z14); remark: listed apart in the source

Sequence of Human β-Klotho (KLB) on 293/KLB cells (human) (Q86Z14 whole entry): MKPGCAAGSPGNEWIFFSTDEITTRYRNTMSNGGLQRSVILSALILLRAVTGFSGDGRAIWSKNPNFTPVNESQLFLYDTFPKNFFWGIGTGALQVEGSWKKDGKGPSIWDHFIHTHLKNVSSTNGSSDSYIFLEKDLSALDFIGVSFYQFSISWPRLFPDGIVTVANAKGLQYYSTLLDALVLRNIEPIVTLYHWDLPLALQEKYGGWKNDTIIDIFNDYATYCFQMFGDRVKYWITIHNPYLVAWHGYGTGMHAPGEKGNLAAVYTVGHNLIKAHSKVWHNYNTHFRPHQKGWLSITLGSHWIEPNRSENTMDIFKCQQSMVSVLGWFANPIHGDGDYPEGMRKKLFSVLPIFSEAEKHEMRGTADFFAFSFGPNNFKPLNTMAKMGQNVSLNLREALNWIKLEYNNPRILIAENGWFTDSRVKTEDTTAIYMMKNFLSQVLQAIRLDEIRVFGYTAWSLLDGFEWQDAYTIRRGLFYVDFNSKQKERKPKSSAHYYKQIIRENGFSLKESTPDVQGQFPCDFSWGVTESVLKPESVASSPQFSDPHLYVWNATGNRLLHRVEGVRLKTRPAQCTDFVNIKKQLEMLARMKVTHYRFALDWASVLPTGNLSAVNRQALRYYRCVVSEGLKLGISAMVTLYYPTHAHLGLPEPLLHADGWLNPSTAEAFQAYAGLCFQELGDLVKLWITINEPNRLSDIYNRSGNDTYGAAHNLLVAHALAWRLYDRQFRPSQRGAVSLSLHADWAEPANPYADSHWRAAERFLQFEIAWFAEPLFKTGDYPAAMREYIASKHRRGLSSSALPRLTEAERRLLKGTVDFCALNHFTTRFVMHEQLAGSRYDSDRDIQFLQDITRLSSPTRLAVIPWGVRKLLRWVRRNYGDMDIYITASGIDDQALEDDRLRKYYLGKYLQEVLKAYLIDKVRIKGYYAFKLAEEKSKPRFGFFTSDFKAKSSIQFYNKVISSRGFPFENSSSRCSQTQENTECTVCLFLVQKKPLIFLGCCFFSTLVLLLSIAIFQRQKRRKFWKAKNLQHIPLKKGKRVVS
Sequence of FGF21-19A hybrid (Q9NSA1 other isoform, or with tags, fused parts or gaps): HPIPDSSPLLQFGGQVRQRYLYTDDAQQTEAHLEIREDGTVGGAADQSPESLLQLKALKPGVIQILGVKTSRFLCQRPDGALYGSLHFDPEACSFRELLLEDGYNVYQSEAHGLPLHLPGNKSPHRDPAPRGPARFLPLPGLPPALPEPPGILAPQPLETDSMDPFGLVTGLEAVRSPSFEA
Sequence of 19C26,A^26 (O95750 other isoform, or with tags, fused parts or gaps): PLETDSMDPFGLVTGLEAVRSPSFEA

Substance	potency of inhibition of FGF21 and FGF19 pERK signalling in 293/KLB cells, relative to 19C26, 21C25 and FGF21^18−181 [1]	pERK agonism in 293/KLB and Hep3B cells, potency relative to native FGF21 [2]
19C26,A^26 (from UniProt O95750 191-216) (peptide)	> 20 fold	
FGF21-19A hybrid (from UniProt Q9NSA1 29-184; O95750 191-216) (ligand)		10 fold
